Here are results for one substance from article PMC12249575.

For the assay, the target named is EcSofic H194A mutant (Sofic from Escherichia coli H397) (Escherichia coli H397). The assay can be described thus: AUC; sedimentation velocity, 50,000 rpm, 12 °C; samples 0.8 mg/mL in 20 mM Tris-HCl pH 7.5, 100 mM NaCl, 1 mM DTT; SEDFIT.

As for “EcSofic H194A mutant (Sofic from Escherichia coli H397) (enzyme)”, the stoichiometry N (as a rule, the number of molecules, sites or subunits per partner or assembly) came out at 2.
